Biological target: Burkholderia pseudomallei K96243 sphingosine-1-phosphate lyase S1PL2021 (shorter ORF of BPSS2021, st (Burkholderia pseudomallei K96243))
Experiment: SEC

Burkholderia pseudomallei K96243 sphingosine-1-phosphate lyase S1PL2021 (shorter ORF of BPSS2021, st (enzyme)
stoichiometry N: 2
